These results are taken from article PMC5372222.

For series [1], the target named is T1, human alpha-thrombin (Homo sapiens, UniProt P00734;P00734 328-363;364-622). Nature of the series: blot with protected Apt-AuNP probe and gold enhancement; thrombin in 10-fold diluted human serum on PVDF; protection DNA 1 uM before 10x dilution; as low as 30 ng detected; binding buffer 100 mM NaCl, 20 mM Tris-HCl, 2 mM MgCl2, 5 mM KCl, 1 mM CaCl2, 0.02% Tween 20; pH and temperature of binding not stated.

For series [2], the target named is T1, human alpha-thrombin. In words: blot with Apt-AuNP probe and gold enhancement; thrombin in 10-fold diluted human serum on PVDF; strong background from serum proteins; binding buffer 100 mM NaCl, 20 mM Tris-HCl, 2 mM MgCl2, 5 mM KCl, 1 mM CaCl2, 0.02% Tween 20; pH and temperature of binding not stated.

B1: thrombin 15-mer aptamer protected with PolyA-Oligo10 on AuNP (mixed)
DNA: GGTTGGTGTGGTTGG
?: AAAAAAAAAAAAAAAAAAAACCAACCACAC
modifications: 5'-SH-(CH2)6 thiol on strand 1
With B1, the binding result in series [1] is recorded as “binds”.

B2: thrombin 15-mer aptamer on AuNP (Apt-AuNP) (ssDNA)
DNA: GGTTGGTGTGGTTGG
modifications: 5'-SH-(CH2)6 thiol
Turning to B2, the binding result in series [2] is “binds”.
